System: MS2 coat protein
Test: apparent KD of MS2 coat protein; designed switch direction (-1 OFF switch, 1 ON switch): -1; higher = weaker reporter binding
Outline: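 An oligonucleotide input, 200 uM small-molecule ligand, or no input was present during titration of SNAP-549-labelled MS2 coat protein, which was doubled from 0.7 or 1.5 nM to 3 µM. Designed RNA switches had been transcribed on Illumina chips by stalled E. coli RNA polymerase. Apparent KD per design is the median over clusters of curves fitted to normalised cluster fluorescence.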

[1] = input ligand: microRNA oligo, concentration not stated
[2] = Eterna round: R95, input ligand: FMN 200 uM
[3] = Eterna round: R95, input ligand: microRNA oligo, concentration not stated
[4] = Eterna round: R95, input ligand: none

Sequence	apparent KD of MS2 coat protein (input ligand: FMN 200 uM) [nM]	apparent KD of MS2 coat protein [1] [nM]	apparent KD of MS2 coat protein (input ligand: none) [nM]	apparent KD of MS2 coat protein [2] [nM]	apparent KD of MS2 coat protein [3] [nM]	apparent KD of MS2 coat protein [4] [nM]
AUAAAUCAUGUAGGAUAUGCGUGGCGAAGCUAUGCAGAAGGACAUGAGGAUCACCCAUGUGCUUGCGUCCGCGUACGGAUGCAA [Mat - Exclusion NG 1 - Mod of JL - D69] (Eterna round: R96, puzzle: Exclusion NG 1)	65.2	155	231	–	–	–
AUAACAUGCUGGUGAUCAUACAUGAGGAUCACCCAUGUAACAAGCUUUUUGCUCGUCUUAUAAUUUAAGAUCACCAG [Stov1/7-A2] (Eterna round: R97, puzzle: Sensor, turn-off variant 1)	17.4	–	18.1	–	–	–
AUAAUGUCAGGAUAUACUAAUGAUGAAUGAUCAGACAUUAUGUAGAAGGGACAUGAGGAUCACCCAUGUAAUAU [EX4 #3] (Eterna round: R97, puzzle: Exclusion 4)	35.5	–	29.1	–	–	–
AUAAUGUCAGGAUAUCAGUCGACUAGCUUCGGCUAGUCGACUGAGAAGGGACAUGAGGAUCACCCAUGUGUUUC [E4/14-A1] (Eterna round: R97, puzzle: Exclusion 4)	2390	–	505	–	–	–
AUAAUGUGAGGAUAUCAGUCGUACAGCGAUAGCUGUACGACUGAGAAGGCACAUGAGGAUCACCCAUGUGGUCA [E4/5-A4] (Eterna round: R97, puzzle: Exclusion 4)	162	–	562	–	–	–
AUAAUUUAAGUGAGGAUAUACCUAUGGAAACAUAGGUAGAAGGCACAUGAGGAUCACCCAUGUUCCUAUACAUA [Fiskers BMX 4 - 3] (puzzle: Brourd's mod of Exclusion 4)	–	–	–	22.8	12	13.1
AUACACUUAGUGAGGAUAUCGUUUUCUUUACGGAUCGAGAAGGCACAUGAGGAUCACCCAUGUUUGACGUGAAU [JR_BMOE4_Sub095] (puzzle: Brourd's mod of Exclusion 4)	–	–	–	–	20.5	–
AUAGAGUCAGGAUAUACAGGUGGAGGAGAGCAGCGUAAGGAGUAGAAGGGACAUGAGGAUCACCCAUGUAAGUG [JR_Exclu4_Sub060] (puzzle: Exclusion 4)	–	–	–	52.5	55.1	81.2
AUAGAGUCAGGAUAUUGCGCAGUGGACAUGAGGAUCACCCAUGUGAACUUCGUACCGGGCCAAGAAGGGACGGAAA [Onedra] (puzzle: Exclusion 5)	–	–	–	96.6	21.5	31.1
AUAGAUAUAGGAUAUGAGGUAUAGUACAUGAGGAUCACCCAUGUUGAUCGCAUGAACGAUUUAGAAGGAUACCUAA [Eternabot (L2) Solution 83] (Eterna round: R97, puzzle: Exclusion 5)	643	–	1310	–	–	–
AUAGGCUGUUUUGUUCGUCACAUGAGGAUCACCCAUGUCUCGAGACUGUGCUUACGUUGCGUGUAUAGUCCGGGUAU [Eternabot (L1) Solution 5] (Eterna round: R97, puzzle: Sensor, turn-off variant 1)	34.1	–	36.3	–	–	–
AUAGGGUCAGGAUAUUGCGCAGUGGACAUGAGGAUCACCCAUGUGAACUUCGUACCGGGCCAAGAAGGGACAGAAA [Tiersoaso] (puzzle: Exclusion 5)	–	–	–	21.7	11.3	13.4
AUAUAGUCAGGAUAUCGAAGUGAGUGUUGGUGGGUAAGGUACGAGAAGGGACAUGAGGAUCACCCAUGUAGGAA [JR_Exclusion4)Sub004] (puzzle: Exclusion 4)	–	–	–	–	48	–
AUCAGCUCGUGAGGAUAUACAUGCGUGCUUCGGCACGAAUUUAAGAUCACAUGAGGAUCACCCAUGUAGAAGGCACGAGCUGAU [ENG2/3-A3] (Eterna round: R96, puzzle: Exclusion NG 2)	1880	538	520	–	–	–
AUCAGCUCGUGAGGAUAUACAUGCGUGCUUCGGCACGAAUUUAAGAUCACAUGAGGAUCACCCAUGUAGAAGGUACGAGCUGAU [ENG2/3-C3] (Eterna round: R96, puzzle: Exclusion NG 2)	498	287	275	–	–	–
AUCAGCUCGUGAGGAUAUAUAUUAACAUGAGGAUCACCCAUGUAAGAUCAGCUUCGGCAGUUAAUAUAGAAGGCACGAGCUGAU [ENG2/14-A2] (Eterna round: R96, puzzle: Exclusion NG 2)	151	98.8	114	–	–	–
AUCAUGUCAGGAUAUGUGACAUGGAUCUUCGGAUCAAGAUCACAGAAGGGACAUGAGGAUCACCCAUGUCGAUC [Ex4-3: 29] (puzzle: Exclusion 4)	–	–	–	–	66.9	–

Sequence	apparent KD of MS2 coat protein (input ligand: FMN 200 uM) [nM]	apparent KD of MS2 coat protein [1] [nM]	apparent KD of MS2 coat protein (input ligand: none) [nM]	apparent KD of MS2 coat protein [2] [nM]	apparent KD of MS2 coat protein [3] [nM]	apparent KD of MS2 coat protein [4] [nM]
AUCCUACAUGAGGAUCACCCAUGUCAGGAUAUCCAAGAAAUGUGGCCUGAUUGGCCACGGAGAAGGGACGGGUG [jl-ex1-4.60 ViennaUCT mod] (Eterna round: R97, puzzle: Exclusion 1)	47.2	–	45	–	–	–
AUCGUAGCAGGAUAUCCGGAGAUUGACAUGAGGAUCACCCAUGUGGUCAUGCCAGCCAAUGGAGAAGGGUUUCGGU [Eternabot (L1) Solution 49] (Eterna round: R97, puzzle: Exclusion 5)	618	–	637	–	–	–
AUCGUGCAGCUUUGCUGUACGAGUACAUGAGGAUCACCCAUGUAGGAUAUGGUACGCUUUGCGUGCUAGAAGGAUAUGCGUUUG [EX ENG3 1.45] (Eterna round: R96, puzzle: Exclusion NG 3)	46.7	40	41.3	–	–	–
AUCGUGUGAGGAUAUCGAUUAUGGAAGUCUAGGUCCAUACGCGAGAAGGCACAUGAGGAUCACCCAUGUAAUGG [jl-ex4-4.32 ViennaUCT mod] (Eterna round: R97, puzzle: Exclusion 4)	29.8	–	486	–	–	–
AUCUGCACGCUGCGGUCCUACAUGAGGAUCACCCAUGUGGUCUGGUGGCGUGGGUCGCCGGACUUGGCUCGUCUUGA [salish99_S_TOV1_R5_043] (Eterna round: R97, puzzle: Sensor, turn-off variant 1)	18.1	–	18.1	–	–	–
AUCUUGAUAGGAUAUACAUGAGGAUCACCCAUGUCCCACCCGUUACCUCUGGCCCUAUGUAGAAGGAUCGUCUA [Exy#20] (Eterna round: R97, puzzle: Exclusion 3)	50.5	–	68.5	–	–	–
AUCUUUGCUCGUCAAAUUUACAUGAGGAUCACCCAUGUCUACCUGAGUGCGUCGGGACUGUACGUCAGCCGGUGGAA [Eternabot (L2) Solution 15] (Eterna round: R97, puzzle: Sensor, turn-off variant 1)	23.3	–	25	–	–	–
AUGAGCAGACGGAGAUCCAACAUGAGGAUCACCCAUGUCUCAAAAGCUUUUUGCUCAUCUUAUCGUACCUUGGUGCU [Mat - Sensor v3 - turn-off var 1 - JL Mod - D13] (puzzle: Sensor v3, turn-off variant 1)	–	–	–	162	15.4	238
AUGAGGAUAAGAAAGUGAAGAUAGAGCGUACCUUAUGGAACAUGAGGAUCACCCAUGUAGCUUUUUGCUCGUCUUAU [JR_SV3TOV2_Sub031] (puzzle: Sensor v3, turn-off variant 2)	–	–	–	19.9	49.5	14.7
AUGAGGUUAGGAUAUACAUGAGGAUCACCCAUGUUGAAAGGUUAGAUAGGCGAAGAUGGUAGAAGGAACAAAGA [JR_Exclu3_Sub054] (puzzle: Exclusion 3)	–	–	–	29.4	38.2	43.9
AUGAGGUUAGGAUAUACAUGAGGAUCACCCAUGUUGAAAGGUUAGAUAGGCGAAGCUGGUAGAAGGAACGGAGC [JR_Exclu3_Sub055] (puzzle: Exclusion 3)	–	–	–	27.9	29.8	32.8
AUGAUAUAACAGGAUAUUUGGCGCGGAUGCAGAGAAGAAGGGUUGACAUGAGGAUCACCCAUGUGAUCCUUCAA [Eternabot (L1) Solution 18] (Eterna round: R97, puzzle: Exclusion 6)	20.1	–	14.3	–	–	–
AUGCCCUGAGGAUAUCUCAUCCCGCACAUGAGGAUCACCCAUGUUCUUCUCCGGGCUCCGAGAGAAGGCAGGCCUA [Armus6] (Eterna round: R97, puzzle: Exclusion 5)	68.2	–	102	–	–	–
AUGGGUCCUCUCGGAGCUACAUGAGGAUCACCCAUGUGUAUUGAGGAUAUCCACUGCUCAGGACGGGAGAAGGCAGUGUACUGU [Ex NG3 #87] (Eterna round: R96, puzzle: Exclusion NG 3)	51.4	46.3	58.4	–	–	–
AUGUACCGGUGAGGAUAUUUUUAAUAGAGCUUUAUGAUAUACAUGAGGAUCACCCAUGUUACUUUAAAGAAGGCAUCGGAUUAA [Mat - Exclusion NG 2 - Mod of JL - D90] (Eterna round: R96, puzzle: Exclusion NG 2)	–	12.8	–	–	–	–
AUGUGCACGCUGCGAUCCUACAUGAGGAUCACCCAUGUGGUCUGGUGGCGUGGGUCACCGGACUUGGCUCGUCUUGU [salish99_S_TOV1_R5_081] (Eterna round: R97, puzzle: Sensor, turn-off variant 1)	62.1	–	77.8	–	–	–
AUGUUGCGAGGAUAUAUAAGGGUAUAAUAAUAAGAUAUGGAACAUGAGGAUCACCCAUGUAGAAGGUGCAUAAC [JR_Ex2_Sub040] (Eterna round: R97, puzzle: Exclusion 2)	840	–	21.1	–	–	–

From the supplement of paper PMC9170038
